Measurements from US20240117018A1.

Legend:
Experiment in all cases: cell-based or functional assay
[1] = target: HIV-1 Env of pseudovirus BJOX009000.02.4 (HIV-1)
[2] = target: HIV-1 Env of pseudovirus T255-34 (HIV-1)
[3] = target: HIV-1 Env of pseudovirus T257-31 (HIV-1)
[4] = target: HIV-1 Env of pseudovirus C4118.c09 (HIV-1)
[5] = target: HIV-1 Env of pseudovirus X2131_C1_B5 (HIV-1)
[6] = target: HIV-1 Env of pseudovirus 191955_A11 (HIV-1)
[7] = target: HIV-1 Env of pseudovirus 0815.v3.c3 (HIV-1)
[8] = target: HIV-1 Env of pseudovirus 3301.v1.c24 (HIV-1)
[9] = target: HIV-1 Env of pseudovirus T251-18 (HIV-1)
[10] = target: HIV-1 Env of pseudovirus 3817.v2.c59 (HIV-1)
[11] = target: HIV-1 Env of pseudovirus X1193_c1 (HIV-1)
[12] = target: HIV-1 Env of pseudovirus 6480.v4.c25 (HIV-1)
[13] = target: HIV-1 Env of pseudovirus 6540.v4.c1 (HIV-1)
[14] = target: HIV-1 Env of pseudovirus X1632_S2_B10 (HIV-1)
[15] = target: HIV-1 Env of pseudovirus R3265.c06 (HIV-1)
[16] = target: HIV-1 Env of pseudovirus 89-F1_2_25 (HIV-1)
[17] = target: HIV-1 Env of pseudovirus 191084 B7-19 (HIV-1)
[18] = target: HIV-1 Env of pseudovirus BJOX010000.06.2 (HIV-1)
[19] = target: HIV-1 Env of pseudovirus 235-47 (HIV-1)
[20] = target: HIV-1 Env of pseudovirus 928-28 (HIV-1)
[21] = target: HIV-1 Env of pseudovirus R1166.c01 (HIV-1)
[22] = target: HIV-1 Env of pseudovirus BJOX015000.11.5 (HIV-1)
[23] = target: HIV-1 Env of pseudovirus 3103.v3.c10 (HIV-1)
[24] = target: HIV-1 Env of pseudovirus 211-9 (HIV-1)
[25] = target: HIV-1 Env of pseudovirus 231966.c02 (HIV-1)
[26] = target: HIV-1 Env of pseudovirus C3347.c11 (HIV-1)
[27] = target: HIV-1 Env of pseudovirus C1080.c03 (HIV-1)
[28] = target: HIV-1 Env of pseudovirus X2088_c9 (HIV-1)
[29] = target: HIV-1 Env of pseudovirus 6041.v3.c23 (HIV-1)
[30] = target: HIV-1 Env of pseudovirus 263-8 (HIV-1)
[31] = target: HIV-1 Env of pseudovirus P1981_C5_3 (HIV-1)
[32] = target: HIV-1 Env of pseudovirus 6811.v7.c18 (HIV-1)
[33] = target: HIV-1 Env of pseudovirus BJOX028000.10.3 (HIV-1)
[34] = target: HIV-1 Env of pseudovirus BJOX025000.01.1 (HIV-1)
[35] = target: HIV-1 Env of pseudovirus R2184.c04 (HIV-1)
[36] = target: HIV-1 Env of pseudovirus P0402_c2_11 (HIV-1)

Substance: N49P7 (antibody)
- IC50 [1]: 0.113 µg/mL
- IC80 [1]: 0.506 µg/mL
- MPI [1]: 100
- IC50 [2]: 0.053 µg/mL
- IC80 [2]: 0.262 µg/mL
- MPI [2]: 100
- IC50 [3]: 0.158 µg/mL
- IC80 [3]: 0.619 µg/mL
- MPI [3]: 100
- IC50 [4]: 0.043 µg/mL
- IC80 [4]: 0.147 µg/mL
- MPI [4]: 100
- IC50 (neutralisation, TZM.bl cells) [5]: 0.081 µg/mL
- IC80 (neutralisation, TZM.bl cells) [5]: 0.273 µg/mL
- MPI [5]: 100
- IC50 [6]: 1.81 µg/mL
- IC80 [6]: 8.87 µg/mL
- MPI [6]: 99
- IC50 (neutralisation, TZM.bl cells) [7]: 0.016 µg/mL
- IC80 (neutralisation, TZM.bl cells) [7]: 0.053 µg/mL
- MPI [7]: 100
- IC50 (neutralisation, TZM.bl cells) [8]: 0.025 µg/mL
- IC80 (neutralisation, TZM.bl cells) [8]: 0.069 µg/mL
- MPI [8]: 100
- IC50 [9]: 0.178 µg/mL
- IC80 [9]: 0.62 µg/mL
- MPI [9]: 100
- IC50 (neutralisation, TZM.bl cells) [10]: 0.716 µg/mL
- IC80 (neutralisation, TZM.bl cells) [10]: 3.73 µg/mL
- MPI [10]: 99
- IC50 [11]: 0.016 µg/mL
- IC80 [11]: 0.06 µg/mL
- MPI [11]: 100
- IC50 (neutralisation, TZM.bl cells) [12]: 0.031 µg/mL
- IC80 (neutralisation, TZM.bl cells) [12]: 0.113 µg/mL
- MPI [12]: 100
- IC50 (neutralisation, TZM.bl cells) [13]: 11.7 µg/mL
- IC80 (neutralisation, TZM.bl cells) [13]: 33.2 µg/mL
- MPI [13]: 92
- IC50 (neutralisation, TZM.bl cells) [14]: 12 µg/mL
- IC80 (neutralisation, TZM.bl cells) [14]: 40.4 µg/mL
- MPI [14]: 85
- IC50 [15]: 0.048 µg/mL
- IC80 [15]: 0.282 µg/mL
- MPI [15]: 100
- IC50 (neutralisation, TZM.bl cells) [16]: 21.6 µg/mL
- IC80 (neutralisation, TZM.bl cells) [16]: > 50 µg/mL
- MPI [16]: 80
- IC50 [17]: 0.047 µg/mL
- IC80 [17]: 0.142 µg/mL
- MPI [17]: 100
- IC50 [18]: 0.085 µg/mL
- IC80 [18]: 0.592 µg/mL
- MPI [18]: 100
- IC50 [19]: 0.045 µg/mL
- IC80 [19]: 0.3 µg/mL
- MPI [19]: 99
- IC50 [20]: 0.167 µg/mL
- IC80 [20]: 0.579 µg/mL
- MPI [20]: 100
- IC50 [21]: 0.092 µg/mL
- IC80 [21]: 0.313 µg/mL
- MPI [21]: 100
- IC50 [22]: 0.036 µg/mL
- IC80 [22]: 0.157 µg/mL
- MPI [22]: 100
- IC50 (neutralisation, TZM.bl cells) [23]: 0.158 µg/mL
- IC80 (neutralisation, TZM.bl cells) [23]: 0.509 µg/mL
- MPI [23]: 100
- IC50 [24]: 0.22 µg/mL
- IC80 [24]: 0.767 µg/mL
- MPI [24]: 100
- IC50 (neutralisation, TZM.bl cells) [25]: 0.102 µg/mL
- IC80 (neutralisation, TZM.bl cells) [25]: 0.43 µg/mL
- MPI [25]: 100
- IC50 [26]: 0.024 µg/mL
- IC80 [26]: 0.067 µg/mL
- MPI [26]: 100
- IC50 [27]: 0.114 µg/mL
- IC80 [27]: 0.765 µg/mL
- MPI [27]: 100
- IC50 [28]: 0.116 µg/mL
- IC80 [28]: 0.338 µg/mL
- MPI [28]: 100
- IC50 (neutralisation, TZM.bl cells) [29]: 0.047 µg/mL
- IC80 (neutralisation, TZM.bl cells) [29]: 0.222 µg/mL
- MPI [29]: 100
- IC50 [30]: 0.056 µg/mL
- IC80 [30]: 0.201 µg/mL
- MPI [30]: 100
- IC50 (neutralisation, TZM.bl cells) [31]: 0.113 µg/mL
- IC80 (neutralisation, TZM.bl cells) [31]: 0.274 µg/mL
- MPI [31]: 100
- IC50 (neutralisation, TZM.bl cells) [32]: 0.229 µg/mL
- IC80 (neutralisation, TZM.bl cells) [32]: 0.992 µg/mL
- MPI [32]: 100
- IC50 [33]: 0.02 µg/mL
- IC80 [33]: 0.123 µg/mL
- MPI [33]: 100
- IC50 [34]: 0.038 µg/mL
- IC80 [34]: 0.236 µg/mL
- MPI [34]: 100
- IC50 [35]: 0.011 µg/mL
- IC80 [35]: 0.031 µg/mL
- MPI [35]: 100
- IC50 [36]: 0.014 µg/mL
- IC80 [36]: 0.061 µg/mL
- MPI [36]: 100
